For the series the following is noted: glycan lost; control: wild type.

B1: MPT32 (also called Rv1860 or Apa): T10V (protein)
parent chain: MHQVDPNLTRRKGRLAALAIAAMASASLVTVAVPATANADPEPAPPVPTTAASPPSTAAAPPAPATPVAPPPPAAANTPNAQPGDPNAAPPPADPNAPPPPVIAPNAPQPVRIDNPVGGFSFALPAGWVESDAAHFDYGSALLSKTTGDPPFPGQPPPVANDTRIVLGRLDQKLYASAEATDSKAAARLGSDMGEFYMPYPGTRINQETVSLDANGVSGSASYYEVKFSDPSKPNGQIWTGVIGSPAANAPDAGPPQRWFVVWLGTANNPVDKGAAKALAESIRPLVAPPPAPAPAPAEPAPAPAPAGEVAPTPTTPTPQRTLPA
With B1, the “other: T cell antigenicity” value is recorded as “no change”.

B2: MPT32 (also called Rv1860 or Apa): T18V (protein)
parent chain: MHQVDPNLTRRKGRLAALAIAAMASASLVTVAVPATANADPEPAPPVPTTAASPPSTAAAPPAPATPVAPPPPAAANTPNAQPGDPNAAPPPADPNAPPPPVIAPNAPQPVRIDNPVGGFSFALPAGWVESDAAHFDYGSALLSKTTGDPPFPGQPPPVANDTRIVLGRLDQKLYASAEATDSKAAARLGSDMGEFYMPYPGTRINQETVSLDANGVSGSASYYEVKFSDPSKPNGQIWTGVIGSPAANAPDAGPPQRWFVVWLGTANNPVDKGAAKALAESIRPLVAPPPAPAPAPAEPAPAPAPAGEVAPTPTTPTPQRTLPA
Turning to B2, the “other: T cell antigenicity” value is “increases”.

For the origin of these results see publication PMC5496856.
